From IntAct's records for PubMed 18682223 come the findings set out here.

B1: DNA polymerase processivity factor (Human cytomegalovirus (strain AD169) (HHV-5)), P16790 (parent)
chain: MDRKTRLSEPPTLALRLKPYKTAIQQLRSVIRALKENTTVTFLPTPSLILQTVRSHCVSKITFNSSCLYITDKSFQPKTINNSTPLLGNFMYLTSSKDLTKFYVQDISDLSAKISMCAPDFNMEFSSACVHGQDIVRESENSAVHVDLDFGVVADLLKWIGPHTRVKRNVKKAPCPTGTVQILVHAGPPAIKFILTNGSELEFTANNRVSFHGVKNMRINVQLKNFYQTLLNCAVTKLPCTLRIVTEHDTLLYVASRNGLFAVENFLTEEPFQRGDPFDKNYVGNSGKSRGGGGGGGSLSSLANAGGLHDDGPGLDNDLMNEPMGLGGLGGGGGGGGKKHDRGGGGGSGTRKMSSGGGGGDHDHGLSSKEKYEQHKITSYLTSKGGSGGGGGGGGGGLDRNSGNYFNDAKEESDSEDSVTFEFVPNTKKQKCG
partner: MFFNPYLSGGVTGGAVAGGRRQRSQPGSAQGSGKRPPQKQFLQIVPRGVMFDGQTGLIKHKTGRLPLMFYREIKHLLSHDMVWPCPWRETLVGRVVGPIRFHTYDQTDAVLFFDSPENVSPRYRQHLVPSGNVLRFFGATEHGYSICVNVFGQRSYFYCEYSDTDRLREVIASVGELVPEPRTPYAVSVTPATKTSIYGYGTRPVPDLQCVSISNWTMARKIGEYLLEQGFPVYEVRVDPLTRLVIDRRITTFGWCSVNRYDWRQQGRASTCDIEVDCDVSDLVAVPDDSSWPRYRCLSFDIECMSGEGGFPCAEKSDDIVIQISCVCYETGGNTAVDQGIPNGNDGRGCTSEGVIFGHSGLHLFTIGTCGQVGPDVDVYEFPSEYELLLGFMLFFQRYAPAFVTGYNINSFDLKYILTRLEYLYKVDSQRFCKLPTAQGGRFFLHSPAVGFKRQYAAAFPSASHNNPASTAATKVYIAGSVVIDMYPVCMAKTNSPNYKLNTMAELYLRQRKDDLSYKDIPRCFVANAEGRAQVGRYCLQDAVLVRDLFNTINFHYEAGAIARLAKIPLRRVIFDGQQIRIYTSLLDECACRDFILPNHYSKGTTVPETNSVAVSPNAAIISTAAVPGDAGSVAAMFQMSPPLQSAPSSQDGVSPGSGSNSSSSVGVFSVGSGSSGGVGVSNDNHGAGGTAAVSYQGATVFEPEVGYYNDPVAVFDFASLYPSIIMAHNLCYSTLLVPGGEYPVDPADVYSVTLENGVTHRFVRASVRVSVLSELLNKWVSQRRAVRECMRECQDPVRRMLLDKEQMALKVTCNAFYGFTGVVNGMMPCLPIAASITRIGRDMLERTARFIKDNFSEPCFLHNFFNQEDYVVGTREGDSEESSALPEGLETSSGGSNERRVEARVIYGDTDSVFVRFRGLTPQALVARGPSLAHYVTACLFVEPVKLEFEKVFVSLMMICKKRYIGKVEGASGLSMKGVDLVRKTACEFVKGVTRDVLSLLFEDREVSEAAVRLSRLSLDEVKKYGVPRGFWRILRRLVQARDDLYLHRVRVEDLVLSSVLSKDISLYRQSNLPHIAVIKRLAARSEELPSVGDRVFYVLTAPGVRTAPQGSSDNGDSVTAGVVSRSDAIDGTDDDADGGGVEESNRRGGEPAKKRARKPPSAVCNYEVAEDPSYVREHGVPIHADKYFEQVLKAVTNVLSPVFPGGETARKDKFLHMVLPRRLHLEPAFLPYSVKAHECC

The variants in the assay derive from B1. The conditions noted are these: with dpol_hcmva UL54, P08546.
On to R165A;K167A;R168A;K171A;K172A, for which the “effect of a mutation on the interaction” value is reported as “decreasing interaction”.

In the case of K35A;K158A;K224A;K237A, the “effect of a mutation on the interaction” value is given as “decreasing interaction”.
